Results reported in patent publication US20200087405A1 (UNIVERSITY OF SASKATCHEWAN, published 2020).

T1: Fc-tagged ECD of ErbB4 (ErbB family member, R&D 1131-ER) (human, UniProt Q15303 26-651)
T1 construct: extracellular domain; not shown: Fc tag of the bought protein
T1 sequence (looked up): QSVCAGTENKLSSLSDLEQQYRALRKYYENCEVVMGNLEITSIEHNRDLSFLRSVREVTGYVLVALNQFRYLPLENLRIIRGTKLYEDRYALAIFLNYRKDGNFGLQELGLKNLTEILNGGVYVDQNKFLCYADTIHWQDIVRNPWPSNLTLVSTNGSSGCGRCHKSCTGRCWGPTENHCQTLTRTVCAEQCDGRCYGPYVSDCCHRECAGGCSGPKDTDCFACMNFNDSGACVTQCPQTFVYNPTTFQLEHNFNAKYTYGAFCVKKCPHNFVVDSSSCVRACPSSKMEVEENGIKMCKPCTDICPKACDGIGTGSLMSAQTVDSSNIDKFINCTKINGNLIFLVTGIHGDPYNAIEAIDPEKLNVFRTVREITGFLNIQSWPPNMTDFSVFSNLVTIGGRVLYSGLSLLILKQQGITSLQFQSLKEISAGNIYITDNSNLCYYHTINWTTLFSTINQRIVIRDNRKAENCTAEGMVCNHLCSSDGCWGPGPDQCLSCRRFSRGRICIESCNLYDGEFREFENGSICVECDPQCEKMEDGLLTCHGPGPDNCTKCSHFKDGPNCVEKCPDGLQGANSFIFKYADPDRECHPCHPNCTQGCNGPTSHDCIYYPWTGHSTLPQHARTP


Assays:
[1] = target: T2, EGFR-DM (Y251A/R285S) on HEK293F cells (UniProt P00533 25-1210); assay: flow cytometry dose response on transfected HEK293F cells
T2 construct: whole, on cells; not shown: C-terminal GFP of the parent EGFR-GFP construct

[2] = target: T3, EGFR-D28 on HEK293F cells (UniProt P00533 25-1210); assay: as above
T3 construct: whole, on cells; also called EGFR-28; not shown: C-terminal GFP of the parent EGFR-GFP construct

[3] = target: T4, Fc-tagged extracellular domain (ECD) of the recombinant human EGFR (rhEGFR) (human, UniProt P00533 25-645); assay: biolayer interferometry, Fab immobilized, rhEGFR in solution, 1:1 global fit
T4 construct: extracellular domain; also called rhEGFR-ECD; rhEGFR-ECD-Fc; not shown: Fc tag of the bought protein (R&D 344-ER)

[4] = target: T2, EGFR-DM (Y251A/R285S) on HEK293F cells; assay: flow cytometry on HEK293F cells transiently expressing EGFR-DM
[5] = target: T5, full-length EGFR with a C-terminal GFP fusion (EGFR-GFP) on HEK293F cells (UniProt P00533 25-1210); assay: flow cytometry dose response on EGFR-293F cells
T5 construct: whole, on cells; also called EGFR (HEK293F transfected); not shown: C-terminal GFP fusion

[6] = target: T6, EGFR-vIII on HEK293F cells (UniProt P00533 25-1210); assay: flow cytometry, HEK293F cells transiently expressing EGFR-vIII against cells expressing GFP
T6 construct: whole, on cells

[7] = target: T4, Fc-tagged extracellular domain (ECD) of …; assay: competitive phage ELISA with soluble rhEGFR as competitor, phage-displayed Fab; affinity-matured clone Fab 8708
[8] = target: T7, cell-surface EGFR (endogenous on A431, MDA-MB-231 and other cancer cell lines); pBABE-EGFR transfected 293T … (UniProt P00533 25-1210, limits assumed); assay: flow cytometry dose response on A431 cells, without EGF
T7 construct: whole, on cells; Untagged EGFR on cells; also called endogenous cell-surface EGFR; EGFR1

[9] = target: T8, Fc-tagged ECD of ErbB3 (R&D 348-RB) (human, UniProt P21860 20-643); assay: ELISA on immobilized Fc-tagged ErbB ECDs
T8 construct: extracellular domain; also called ErbB family member; not shown: Fc tag of the bought protein

[10] = target: T1, Fc-tagged ECD of ErbB4 (ErbB family …); assay: ELISA on immobilized Fc-tagged ErbB ECDs
[11] = target: T9, Fc-tagged ECD of ErbB2 (ErbB family member, R&D 1129-ER) (human, UniProt P04626 23-652); assay: ELISA on immobilized Fc-tagged ErbB ECDs
T9 construct: extracellular domain; not shown: Fc tag of the bought protein

[12] = target: T4, Fc-tagged extracellular domain (ECD) of …; assay: competitive phage ELISA with soluble rhEGFR as competitor, phage-displayed Fab
[13] = target: T10, EGFR fragment D3-D4 on HEK293F cells (UniProt P00533 334-645, limits assumed); assay: flow cytometry heat map of relative binding, 293F cells expressing EGFR EC domains
T10 construct: domain: D3-D4

[14] = target: T11, EGFR fragment D2-D3-D4 on HEK293F cells (UniProt P00533 190-645, limits assumed); assay: as above
T11 construct: domain: D2-D3-D4

[15] = target: T5, full-length EGFR with a C-terminal GFP …; assay: flow cytometry on HEK293F cells transiently expressing EGFR
[16] = target: T3, EGFR-D28 on HEK293F cells; assay: flow cytometry on HEK293F cells transiently expressing EGFR-D28
[17] = target: T4, Fc-tagged extracellular domain (ECD) of …; assay: biolayer interferometry, Fab immobilized, rhEGFR-ECD-Fc in solution, 1:1 model
[18] = target: T7, cell-surface EGFR (endogenous on A431, …); assay: flow cytometry dose response on A431 cells after incubation with 10 nM EGF
[19] = target: T4, Fc-tagged extracellular domain (ECD) of …; assay: multi-point competitive ELISA: soluble EGFR competes with immobilized EGFR for Clone 24
[20] = target: T4, Fc-tagged extracellular domain (ECD) of …; assay: multi-point competitive ELISA: soluble EGFR competes with immobilized EGFR for Clone 23
[21] = target: T4, Fc-tagged extracellular domain (ECD) of …; assay: ELISA: biotinylated EGF on immobilized EGFR, with or without pre-incubation with unlabeled EGF

Binder | fold change of EC50 against EGFR [1] [fold] | fold change of EC50 against EGFR [2] [fold] | Kd [3] [nM] | koff [3] [s⁻¹] | kon [3] [M⁻¹ s⁻¹] | EC50 [4] [nM] | EC50 (read off the curve) [5] [nM] | binding result [6] | EC50 (read off the curve) [8] [nM] | binding result [9] | binding result [10] | binding result [11] | binding result [13] | binding result [14] | EC50 [15] [nM] | EC50 [16] [nM] | other results
Fab 8708 (Fab DL06 AM SR02) (Fab, Purified Fab in most assays; also called DL06 SR02; Fab DL06 SR02) heavy: EVQLVESGGGLVQPGGSLRLSCAASGFNISSSSIHWVRQAPGKGLEWVAYISSYYSSTYYADSVKGRFTISADTSKNTAYLQMNSLRAEDTAVYYCARTYCPPLMRYNPTTYQMDVNPEAQYSFGATCGWAMDYWGQGTLVTVSSASTKGPSVFPLAPSSKSTSGGTAALGCLVKDYFPEPVTVSWNSGALTSGVHTFPAVLQSSGLYSLSSVVTVPSSSLGTQTYICNVNHKPSNTKVDKKVEPKSCDKTHT light: DIQMTQSPSSLSASVGDRVTITCRASQSVSSAVAWYQQKPGKAPKLLIYSASSLYSGVPSRFSGSRSGTDFTLTISSLQPEDFATYYCQQWSYYPITFGQGTKVEIKRTVAAPSVFIFPPSDSQLKSGTASVVCLLNNFYPREAKVQWKVDNALQSGNSQESVTEQDSKDSTYSLSSTLTLSKADYEKHKVYACEVTHQGLSSPVTKSFNRGECGGSDYKDDDDK | < 3 | < 3 | 6.8 | 5.6e-05 | 7000 | 23 | ~6 | no binding (tested: 200 nM) | ~6 | no binding | no binding | no binding | no binding | no binding | 8.2 | 21 | IC50 [7]: ~30 nM; fold enhancement in affinity against parent Fab DL06 [12]: 7 fold
Fab 8709 (Fab H) (Fab, From library F. Purified Fab in most assays) heavy: EVQLVESGGGLVQPGGSLRLSCAASGFNLYSSSMHWVRQAPGKGLEWVASIYPYSGYTYYADSVKGRFTISADTSKNTAYLQMNSLRAEDTAVYYCARYPFGVSAYYAMDYWGQGTLVTVSSASTKGPSVFPLAPSSKSTSGGTAALGCLVKDYFPEPVTVSWNSGALTSGVHTFPAVLQSSGLYSLSSVVTVPSSSLGTQTYICNVNHKPSNTKVDKKVEPKSCDKTHT light: DIQMTQSPSSLSASVGDRVTITCRASQSVSSAVAWYQQKPGKAPKLLIYSASSLYSGVPSRFSGSRSGTDFTLTISSLQPEDFATYYCQQSYWLITFGQGTKVEIKRTVAAPSVFIFPPSDSQLKSGTASVVCLLNNFYPREAKVQWKVDNALQSGNSQESVTEQDSKDSTYSLSSTLTLSKADYEKHKVYACEVTHQGLSSPVTKSFNRGECGGSDYKDDDDK | < 3 | < 3 | 1.4 | 0.00017 | 130000 | 1.4 | ~0.6 | no binding (tested: 200 nM) | ~0.6 | no binding | no binding | no binding | no binding | no binding | 0.6 | 1.4 | fold faster off-rate than Fab 8708 [17]: 3 fold; fold faster on-rate than Fab 8708 [17]: 18 fold; EC50 (read off the curve) [18]: ~3 nM
Fab DL06 AM Clone 24 (Fab, Purified Fab) heavy: EVQLVESGGGLVQPGGSLRLSCAASGFNISSSSIHWVRQAPGKGLEWVAYISSYYSSTYYADSVKGRFTISADTSKNTAYLQMNSLRAEDTAVYYCARTFCPPLMLFNPTTFQLEINAEAKYSFASTCGWAMDYWGQGTLVTVSSASTKGPSVFPLAPSSKSTSGGTAALGCLVKDYFPEPVTVSWNSGALTSGVHTFPAVLQSSGLYSLSSVVTVPSSSLGTQTYICNVNHKPSNTKVDKKVEPKSCDKTHT light: DIQMTQSPSSLSASVGDRVTITCRASQSVSSAVAWYQQKPGKAPKLLIYSASSLYSGVPSRFSGSRSGTDFTLTISSLQPEDFATYYCQQWSYYPITFGQGTKVEIKRTVAAPSVFIFPPSDSQLKSGTASVVCLLNNFYPREAKVQWKVDNALQSGNSQESVTEQDSKDSTYSLSSTLTLSKADYEKHKVYACEVTHQGLSSPVTKSFNRGECGGSDYKDDDDK |  |  |  |  |  |  |  |  |  |  |  |  |  |  |  |  | binding result [19]: binds
Fab DL06 AM Clone 23 (Fab, Purified Fab) heavy: EVQLVESGGGLVQPGGSLRLSCAASGFNISSSSIHWVRQAPGKGLEWVAYISSYYSSTYYADSVKGRFTISADTSKNTAYLQMNSLRAEDTAVYYCARTFCPPIMLFNATSFELDIDAEAKFSFASTCGWAMDYWGQGTLVTVSSASTKGPSVFPLAPSSKSTSGGTAALGCLVKDYFPEPVTVSWNSGALTSGVHTFPAVLQSSGLYSLSSVVTVPSSSLGTQTYICNVNHKPSNTKVDKKVEPKSCDKTHT light: DIQMTQSPSSLSASVGDRVTITCRASQSVSSAVAWYQQKPGKAPKLLIYSASSLYSGVPSRFSGSRSGTDFTLTISSLQPEDFATYYCQQWSYYPITFGQGTKVEIKRTVAAPSVFIFPPSDSQLKSGTASVVCLLNNFYPREAKVQWKVDNALQSGNSQESVTEQDSKDSTYSLSSTLTLSKADYEKHKVYACEVTHQGLSSPVTKSFNRGECGGSDYKDDDDK |  |  |  |  |  |  |  |  |  |  |  |  |  |  |  |  | binding result [20]: binds
Recombinant EGF ligand (ligand, UniProt P01133 971-1023, looked up, biotinylated with the N-hydroxysuccinimide ester of biotin in the ligand binding ELISA, also called biotinylated EGF) NSDSECPLSHDGYCLHDGVCMYIEALDKYACNCVVGYIGERCQYRDLKWWELR |  |  |  |  |  |  |  |  |  |  |  |  |  |  |  |  | binding result [21]: binds
